Results published in patent US20210371878A1.

Key:
[1] = target: C-intein of Npu DnaE fused to 3' ABCA4 (set 1, from Cys1150), 3xflag (product of pzac-CMV260-3' ABCA4 intein) (Nostoc punctiforme; human) (UniProt P78363); test: cell-based or functional assay
[2] = target: C-intein of DnaE from Nostoc punctiforme fused to the C-terminal half of EGFP, 3xflag (product of pAAV2.1-CMV-3' EGFP intein) (Nostoc punctiforme); test: cell-based or functional assay

Row | Full-length ABCA4 by Western blot band intensity, relative to the single AAV plasmid (HEK293, set 1) [1] | EGFP protein amount by Western blot band intensity, relative to a single AAV plasmid [2] | Substance
1 | 61% |  | 5' ABCA4 (set 1, split at Cys1150) fused to the N-intein of Npu DnaE, 3xflag (product of pzac-CMV260-5' ABCA4 intein) (from UniProt P78363 1-1150)
2 |  | 76% | N-terminal half of EGFP fused to the N-intein of DnaE from Nostoc punctiforme, 3xflag (product of pAAV2.1-CMV-5' EGFP intein)
